Targets include PDZRN4_1, Q6ZMN7; MAGI2_3, Q86UL8; NHERF4_4, Q86UT5; HTRA1, Q92743; MAGI2_2, Q86UL8; DLG1_2, Q12959; LIMK2, P53671.
What all share (test): holdup assay
Set-up in all cases: key: below the threshold = too weak to quantify, mostly under pKd 3.1 to 4

The target of a further experiment is T1, DFNB31_1, Q9P202.
T1 sequence (Q9P202 135-233, limits assumed, looked up): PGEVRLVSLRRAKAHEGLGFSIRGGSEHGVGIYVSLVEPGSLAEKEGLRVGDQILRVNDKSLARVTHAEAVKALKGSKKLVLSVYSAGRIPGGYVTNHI

A further experiment addresses T2, DFNB31_2, Q9P202.
T2 sequence (Q9P202 274-371, limits assumed, looked up): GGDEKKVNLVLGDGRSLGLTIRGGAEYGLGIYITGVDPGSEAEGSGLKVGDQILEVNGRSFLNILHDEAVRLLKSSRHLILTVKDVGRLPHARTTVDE

Another experiment addresses T3, APBA1_1, Q02410.
T3 sequence (Q02410 651-752, limits assumed, looked up): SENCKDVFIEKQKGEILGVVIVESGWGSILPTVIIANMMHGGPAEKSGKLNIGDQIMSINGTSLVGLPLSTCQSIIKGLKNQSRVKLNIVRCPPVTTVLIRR

Another experiment concerns the target T4, DVL3, Q92997.
T4 sequence (Q92997 244-331, limits assumed, looked up): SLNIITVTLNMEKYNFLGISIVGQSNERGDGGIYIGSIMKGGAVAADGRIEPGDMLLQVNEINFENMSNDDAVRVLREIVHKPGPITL

Another experiment deals with T5, LIN7C, Q9NUP9.
T5 sequence (Q9NUP9 88-185, limits assumed, looked up): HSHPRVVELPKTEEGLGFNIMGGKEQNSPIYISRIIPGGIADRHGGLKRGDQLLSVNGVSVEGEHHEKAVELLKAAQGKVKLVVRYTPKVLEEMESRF

In the next experiment the target is T6, DFNB31_3, Q9P202.
T6 sequence (Q9P202 811-907, limits assumed, looked up): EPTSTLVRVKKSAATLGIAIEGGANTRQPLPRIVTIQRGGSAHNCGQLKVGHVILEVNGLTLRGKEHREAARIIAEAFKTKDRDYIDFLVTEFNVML

The next experiment addresses T7, HTRA4, P83105.
T7 sequence (P83105 378-476, limits assumed, looked up): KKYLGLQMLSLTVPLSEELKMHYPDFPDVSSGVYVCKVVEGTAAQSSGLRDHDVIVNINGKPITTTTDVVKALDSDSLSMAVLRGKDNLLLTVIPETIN

For another experiment, the target named is T8, TJP3_3, O95049.
T8 sequence (O95049 375-456, limits assumed, looked up): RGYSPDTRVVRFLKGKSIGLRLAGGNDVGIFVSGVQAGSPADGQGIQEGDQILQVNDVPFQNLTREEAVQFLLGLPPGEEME

A further experiment addresses T9, FRMPD1, Q5SYB0.
T9 sequence (Q5SYB0 52-145, limits assumed, looked up): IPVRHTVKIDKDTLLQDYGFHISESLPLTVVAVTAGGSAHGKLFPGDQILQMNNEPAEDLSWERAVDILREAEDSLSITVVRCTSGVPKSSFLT

The next experiment addresses T10, CARD11, Q9BXL7.
T10 sequence (Q9BXL7 662-765, limits assumed, looked up): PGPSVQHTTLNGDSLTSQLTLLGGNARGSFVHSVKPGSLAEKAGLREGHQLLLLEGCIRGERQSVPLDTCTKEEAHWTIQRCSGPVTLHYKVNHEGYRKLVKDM

A further experiment addresses T11, GRIP1_5, Q9Y3R0.
T11 sequence (Q9Y3R0 568-668, limits assumed, looked up): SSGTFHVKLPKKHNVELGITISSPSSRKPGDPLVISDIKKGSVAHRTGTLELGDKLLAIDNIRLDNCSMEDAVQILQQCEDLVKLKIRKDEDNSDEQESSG

The target in a further experiment is T12, TX1BP3, O14907.
T12 sequence (O14907 10-122, limits assumed, looked up): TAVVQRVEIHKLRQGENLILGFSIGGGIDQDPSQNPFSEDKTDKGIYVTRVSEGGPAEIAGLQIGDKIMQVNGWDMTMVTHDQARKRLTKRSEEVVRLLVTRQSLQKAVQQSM

The next experiment deals with T13, TIAM2, Q8IVF5.
T13 sequence (Q8IVF5 885-986, limits assumed, looked up): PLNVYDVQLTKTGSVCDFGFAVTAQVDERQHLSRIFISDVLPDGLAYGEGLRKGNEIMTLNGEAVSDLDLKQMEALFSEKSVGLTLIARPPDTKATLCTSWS

Another experiment deals with T14, RAPGEF6, Q8TEU7.
T14 sequence (Q8TEU7 525-625, limits assumed, looked up): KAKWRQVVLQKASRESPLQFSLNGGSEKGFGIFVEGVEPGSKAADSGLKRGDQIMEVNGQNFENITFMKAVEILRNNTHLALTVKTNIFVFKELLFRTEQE

The next experiment addresses T15, SHANK1, Q9Y566.
T15 sequence (Q9Y566 658-767, limits assumed, looked up): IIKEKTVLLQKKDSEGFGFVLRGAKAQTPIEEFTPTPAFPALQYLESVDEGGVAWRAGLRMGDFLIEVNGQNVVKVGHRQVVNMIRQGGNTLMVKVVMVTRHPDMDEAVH

[1] abbreviates: plain residues with an end cap or a label only (N-terminal biotin on a linker: ado-ado).
Setting [2] is: plain residues with an end cap or a label only (N-terminal biotin on a linker: ahx).

Sequence of LIMK2, P53671 (P53671 143-248): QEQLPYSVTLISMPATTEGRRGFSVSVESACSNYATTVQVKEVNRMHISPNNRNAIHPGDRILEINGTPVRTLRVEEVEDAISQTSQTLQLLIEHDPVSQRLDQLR
Sequence of NHERF4_4, Q86UT5 (Q86UT5 464-550): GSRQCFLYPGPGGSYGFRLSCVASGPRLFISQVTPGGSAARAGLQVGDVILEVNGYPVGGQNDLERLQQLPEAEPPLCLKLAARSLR
Sequence of MAGI2_3, Q86UL8 (Q86UL8 600-682): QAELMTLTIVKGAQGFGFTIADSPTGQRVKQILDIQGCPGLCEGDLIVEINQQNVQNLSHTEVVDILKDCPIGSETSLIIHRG
Sequence of PDZRN4_1, Q6ZMN7 (Q6ZMN7 213-318): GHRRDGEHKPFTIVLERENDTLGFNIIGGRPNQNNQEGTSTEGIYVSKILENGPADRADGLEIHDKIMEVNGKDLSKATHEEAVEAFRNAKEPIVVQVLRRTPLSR
Sequence of HTRA1, Q92743 (Q92743 360-477): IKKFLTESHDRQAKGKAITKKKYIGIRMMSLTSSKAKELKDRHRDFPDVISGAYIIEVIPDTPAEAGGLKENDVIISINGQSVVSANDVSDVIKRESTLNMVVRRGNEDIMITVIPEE
Sequence of MAGI2_2, Q86UL8 (Q86UL8 410-522): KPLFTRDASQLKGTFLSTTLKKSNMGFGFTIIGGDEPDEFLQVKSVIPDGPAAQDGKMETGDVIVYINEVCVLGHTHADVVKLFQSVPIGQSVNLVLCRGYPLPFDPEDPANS
Sequence of DLG1_2, Q12959 (Q12959 314-412): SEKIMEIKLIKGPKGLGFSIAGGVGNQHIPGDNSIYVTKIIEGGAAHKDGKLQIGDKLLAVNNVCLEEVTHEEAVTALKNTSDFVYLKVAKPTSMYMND

Regarding EPQYQPGENL [SRC, P12931], the pKd in the experiment with PDZRN4_1, Q6ZMN7 (setting [1]) was 3.52; in the experiment with DFNB31_1, Q9P202 (setting [1]) it was “below the threshold”; with DFNB31_2, Q9P202 (setting [1]) it was “below the threshold”; in the experiment with APBA1_1, Q02410 (setting [1]), “below the threshold”; with DVL3, Q92997 (setting [1]), “below the threshold”; in the experiment with MAGI2_3, Q86UL8 (setting [1]) it was “below the threshold”. Besides, the pKd entry in the experiment with NHERF4_4, Q86UT5 (setting [1]) was “below the threshold”; with HTRA1, Q92743 (setting [1]), “below the threshold”; with LIN7C, Q9NUP9 (setting [1]), “below the threshold”; with DFNB31_3, Q9P202 (setting [1]) it was “below the threshold”; with HTRA4, P83105 (setting [1]), 3.9; with TJP3_3, O95049 (setting [1]) it was “below the threshold”. For the same molecule, the negative-log Kd (pKd) result in the experiment with FRMPD1, Q5SYB0 (setting [1]) is “below the threshold”; with CARD11, Q9BXL7 (setting [1]) it was “below the threshold”; with MAGI2_2, Q86UL8 (setting [1]), “below the threshold”; with GRIP1_5, Q9Y3R0 (setting [1]), “below the threshold”; in the experiment with TX1BP3, O14907 (setting [1]) it was “below the threshold”; with DLG1_2, Q12959 (setting [1]), “below the threshold”. Moreover, the pKd result with LIMK2, P53671 (setting [1]) was “below the threshold”; in the experiment with TIAM2, Q8IVF5 (setting [1]), “below the threshold”; in the experiment with RAPGEF6, Q8TEU7 (setting [1]), “below the threshold”; with SHANK1, Q9Y566 (setting [1]), “below the threshold”.
Take TESNLQTSSC [CGN, Q9P2M7]: the pKd result is listed as “below the threshold” with PDZRN4_1, Q6ZMN7 (setting [2]); “below the threshold” in the experiment with DFNB31_1, Q9P202 (setting [2]); “below the threshold” with DFNB31_2, Q9P202 (setting [2]); “below the threshold” with APBA1_1, Q02410 (setting [2]); “below the threshold” in the experiment with DVL3, Q92997 (setting [2]); “below the threshold” in the experiment with MAGI2_3, Q86UL8 (setting [2]). For the same molecule, the pKd entry with NHERF4_4, Q86UT5 (setting [2]) is given as “below the threshold”; in the experiment with HTRA1, Q92743 (setting [2]) it was “below the threshold”; with LIN7C, Q9NUP9 (setting [2]), “below the threshold”; with DFNB31_3, Q9P202 (setting [2]), “below the threshold”; with HTRA4, P83105 (setting [2]), “below the threshold”; with TJP3_3, O95049 (setting [2]), “below the threshold”. The pKd result is listed as “below the threshold” with FRMPD1, Q5SYB0 (setting [2]); “below the threshold” with CARD11, Q9BXL7 (setting [2]); “below the threshold” with MAGI2_2, Q86UL8 (setting [2]); “below the threshold” in the experiment with GRIP1_5, Q9Y3R0 (setting [2]); “below the threshold” in the experiment with TX1BP3, O14907 (setting [2]); “below the threshold” in the experiment with DLG1_2, Q12959 (setting [2]). In addition, the pKd entry was “below the threshold” with LIMK2, P53671 (setting [2]); “below the threshold” with TIAM2, Q8IVF5 (setting [2]); “below the threshold” with RAPGEF6, Q8TEU7 (setting [2]); “below the threshold” with SHANK1, Q9Y566 (setting [2]).
Turning to DGVNEKVSCV [HTR2A, P28223], the pKd entry with PDZRN4_1, Q6ZMN7 (setting [1]) is “below the threshold”; with DFNB31_1, Q9P202 (setting [1]), “below the threshold”; with DFNB31_2, Q9P202 (setting [1]), “below the threshold”; with APBA1_1, Q02410 (setting [1]), “below the threshold”; in the experiment with DVL3, Q92997 (setting [1]), “below the threshold”; with MAGI2_3, Q86UL8 (setting [1]), 4.72. In addition, the pKd result with NHERF4_4, Q86UT5 (setting [1]) is “below the threshold”; with HTRA1, Q92743 (setting [1]), 4.95; with LIN7C, Q9NUP9 (setting [1]) it was 3.78; with DFNB31_3, Q9P202 (setting [1]), 3.88; with HTRA4, P83105 (setting [1]), 3.71; with TJP3_3, O95049 (setting [1]), “below the threshold”. Moreover, the pKd entry with FRMPD1, Q5SYB0 (setting [1]) was “below the threshold”; with CARD11, Q9BXL7 (setting [1]) it was “below the threshold”; in the experiment with MAGI2_2, Q86UL8 (setting [1]), 4.15; with GRIP1_5, Q9Y3R0 (setting [1]), “below the threshold”; with TX1BP3, O14907 (setting [1]), 3.61; in the experiment with DLG1_2, Q12959 (setting [1]) it was 4.82. The pKd entry with LIMK2, P53671 (setting [1]) was “below the threshold”; with TIAM2, Q8IVF5 (setting [1]), 4.01; in the experiment with RAPGEF6, Q8TEU7 (setting [1]), “below the threshold”; with SHANK1, Q9Y566 (setting [1]), “below the threshold”.
Take APSRKLNTEI [TIAM1, Q13009]: the negative-log Kd (pKd) result with PDZRN4_1, Q6ZMN7 (setting [2]) was “below the threshold”; with DFNB31_1, Q9P202 (setting [2]) it was 3.55; with DFNB31_2, Q9P202 (setting [2]), “below the threshold”; with APBA1_1, Q02410 (setting [2]), “below the threshold”; with DVL3, Q92997 (setting [2]), “below the threshold”; with MAGI2_3, Q86UL8 (setting [2]) it was “below the threshold”. Besides, the pKd result in the experiment with NHERF4_4, Q86UT5 (setting [2]) is “below the threshold”; with HTRA1, Q92743 (setting [2]), “below the threshold”; with LIN7C, Q9NUP9 (setting [2]), “below the threshold”; with DFNB31_3, Q9P202 (setting [2]), “below the threshold”; in the experiment with HTRA4, P83105 (setting [2]), “below the threshold”; with TJP3_3, O95049 (setting [2]), “below the threshold”. Also, the pKd entry with FRMPD1, Q5SYB0 (setting [2]) was “below the threshold”; in the experiment with CARD11, Q9BXL7 (setting [2]), “below the threshold”; in the experiment with MAGI2_2, Q86UL8 (setting [2]), “below the threshold”; with GRIP1_5, Q9Y3R0 (setting [2]) it was “below the threshold”; with TX1BP3, O14907 (setting [2]), “below the threshold”; in the experiment with DLG1_2, Q12959 (setting [2]), 3.97. In addition, the pKd result is on record as “below the threshold” with LIMK2, P53671 (setting [2]); “below the threshold” with TIAM2, Q8IVF5 (setting [2]); “below the threshold” in the experiment with RAPGEF6, Q8TEU7 (setting [2]); “below the threshold” with SHANK1, Q9Y566 (setting [2]).
